Data as given in patent US20060063231, “Compositions and methods for protein production” (Sangamo BioSciences, Inc., published 2006).

Target: 2392/10 ZFP-VP16 fusion (Artificial Sequence)
Assay: cell_activity; Epo secretion, 2392/10-7 CHO cells; additional three-fold over CMV promoter
From the text: Three different erythropoietin (Epo)-expressing constructs were constructed. In the first, Epo expression was controlled by a CMV promoter fused to a β-globin intron (CMV). In the second, Epo expression was controlled by a CMV promoter containing ten upstream copies of the 2392/10 binding site, fused to a β-globin intron (CMVz10, Example 6). In the third, Epo expression was controlled by a SRα promoter with six additional copies of the 2392/10 binding site immediately upstream of the promoter (SRαZ6, Example 5). The three constructs were transiently transfected into either parental DG44 CHO cells or the ZFP-expressing 2392/10-7 cell line. After 24 hours, Epo secretion was measured by ELISA.

B1: CMVz10 promoter target-site insert (dsDNA)
DNA 1: ACGCGTTCATTCCACAGCTCTCATTCCACAGCTCTCATTCCACAGCTCTCATTCCACAGCTCTCATTCCACAGCTCTCATTCCACAGCTCTCATTCCACAGCTCTCATTCCACAGCTCTCATTCCACAGCTCTCATTCCACAGTCACGCGT
DNA 2: ACGCGTGACTGTGGAATGAGAGCTGTGGAATGAGAGCTGTGGAATGAGAGCTGTGGAATGAGAGCTGTGGAATGAGAGCTGTGGAATGAGAGCTGTGGAATGAGAGCTGTGGAATGAGAGCTGTGGAATGAGAGCTGTGGAATGAACGCGT
  activity: 3 fold activation
